Laboratory results as given in patent US20100221248A1.

What was measured:
[1] = target: human FcγRIIIA, 158F 176F allele, soluble (human) (UniProt P08637); assay: SPR (Biacore T100), steady state, MBP-Fn3 immobilized, soluble FcR injected
[2] = target: human FcγRIIIA, 158F 176V allele, soluble (human) (UniProt P08637); assay: as above

Kd [1]: 4.9 µM
Kd [2]: 3.9 µM
B1: MBP-IIIA537 (designed binder, not shown: large carriers)
chain: LGENLYFQSVSDVPRDLEVVVATPTSLLINWDLPFSDSYRITYGETGGNSPVQGFTVPGTESIATISGLKPGVDYTITVYAVASSGSNSYPISINYRTEIDKPSQ
